From US20240043566A1 (SUZHOU TRANSCENTA THERAPEUTICS, published 2024)
Substitutions are numbered along the chain they refer to.

B1: 4B6 scFv variant L-CDR1-1 (scFv)
scFv: DIQMTQSPSSLSASVGDRVTITCKASQNVGAIVAWYQQKPGKAPKLLIYSASNRYTGVPSRFSGSGSGTDFTLTISSLQPEDIATYYCQQYSNYPTFGQGTKLEIKGGGGSGGGGSGGGGSQVQLVQSGAEVKKPGASVKVSCKASGYVFTDYYMNWVRQAPGQSLEWMGDINPNNAGTSYNHKFKGRVTVTVDKSISTAYMELSRLRSDDTAVYYCVKWGDGPFAYWGQGTLVTVSS
notes: also called 4B6-L-CDR1-1
B2: 4B6 scFv variant L-CDR1-2 (scFv)
scFv: B1 scFv with G30P, I32A
notes: also called 4B6-L-CDR1-2
B3: 4B6 scFv variant L-CDR1-3 (scFv)
scFv: B1 scFv with G30K, A31G, I32A
notes: also called 4B6-L-CDR1-3

Target: T1, human PD-L1-Fc (Sino Biological, 70110-D02H) (human, UniProt Q9NZQ7 19-239)
T1 construct: also called hPD-L1-Fc; not shown: Fc part
Assay: BLI, PD-L1-Fc loaded, scFv in solution

T1 sequence (Q9NZQ7 19-239 limits assumed, stated change not applied): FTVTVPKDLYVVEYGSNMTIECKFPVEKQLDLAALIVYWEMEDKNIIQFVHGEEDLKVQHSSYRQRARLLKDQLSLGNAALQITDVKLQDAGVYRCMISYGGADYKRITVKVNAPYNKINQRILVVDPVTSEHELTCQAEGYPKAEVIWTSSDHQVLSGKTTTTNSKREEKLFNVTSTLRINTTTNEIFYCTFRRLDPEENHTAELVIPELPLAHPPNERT

In order of falling “Fold increase (over L-CDR1-WT)” value:
1. B3  10.1 fold
2. B2  4.96 fold
3. B1  4.08 fold
